Test results published in patent US20250101120A1 (BEIJING SOLOBIO GENETECHNOLOGY, published 2025).
Positions count from the first letter of the chain named. Read-outs that look alike come from different tables or passages of the source. Values belong to the binder of their own block, whether it stands above or below them.

Key:
[1] = target: T1, hFc-hFasL (fusion protein of human Fc fragment and human FasL extracellular region) (human, UniProt P48023 134-281); assay: cell-based or functional assay
T1 sequence: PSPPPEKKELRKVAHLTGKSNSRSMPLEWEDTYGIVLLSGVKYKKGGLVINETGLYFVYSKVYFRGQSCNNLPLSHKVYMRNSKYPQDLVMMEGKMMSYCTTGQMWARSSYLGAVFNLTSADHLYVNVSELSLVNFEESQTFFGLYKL

[2] = target: T1, hFc-hFasL (fusion protein of human Fc …); assay: ELISA, hFc-hFasL coated, antibody titrated, anti-human kappa-HRP (protocol of Example 3.2)
[3] = target: T1, hFc-hFasL (fusion protein of human Fc …); assay: ELISA, hFc-hFasL coated, antibody titrated, anti-human kappa-HRP
[4] = target: T1, hFc-hFasL (fusion protein of human Fc …); assay: cell-based or functional assay; remark: listed apart in the source
[5] = target: T1, hFc-hFasL (fusion protein of human Fc …); assay: cell-based or functional assay; remark: listed apart in the source
[6] = target: T1, hFc-hFasL (fusion protein of human Fc …); assay: cell-based or functional assay; remark: listed apart in the source
[7] = target: T1, hFc-hFasL (fusion protein of human Fc …); assay: cell-based or functional assay; remark: listed apart in the source

B1: humFL-M88-4 (antibody, human IgG4, V domains shown)
VH: QVQLVQSGAEVKKPGASVKVSCKGSGYTFTDYTIHWVRQAPGQGLEWMGVISTYQGDASYNQKFKGRVTMTVDKSTSTAYMELSSLRSEDTAVYYCARFPDWDYAMDYWGQGTLVTVSS
VL: EIVMTQSPATLSVSPGERATLSCKASQSVDYDGDSYMNWYQQKPGQPPRLLIYAASNLESGIPARFSGSGSGTEFTLTISSLQSEDFAVYYCQHSRELPYTFGQGTKLEIK
notes: Humanized FL-M88
HepG2 IC50(nM), FasL antigen-induced cell apoptosis [1]: 0.0333 nM
Jurkat IC50(nM), FasL antigen-induced cell apoptosis [1]: 0.0294 nM
EC50 [2]: 288 pM

B2: humFL-M88-7 (antibody, human IgG4, V domains shown)
VH: B1 VH with M48I, V68A
VL: B1 VL with P47A
notes: Humanized FL-M88
HepG2 IC50(nM), FasL antigen-induced cell apoptosis [1]: 0.0274 nM
EC50 [2]: 340 pM

B3: humFL-M88-9 (antibody, human IgG4, V domains shown)
VH: B1 VH with V68A
VL: B1 VL with P47A
notes: Humanized FL-M88
HepG2 IC50(nM), FasL antigen-induced cell apoptosis [1]: 0.0225 nM
Jurkat IC50(nM), FasL antigen-induced cell apoptosis [1]: 0.022 nM
EC50 [2]: 284 pM

B4: humFL-M88-11 (antibody, human IgG4, V domains shown)
VH: B1 VH with A79V
VL: B1 VL with P47A
notes: Humanized FL-M88
EC50 [2]: 343 pM

B5: humFL-M88-6 (antibody, human IgG4, V domains shown)
VH: B1 VH with G24A, K74T, A79V
VL: B1 VL
notes: Humanized FL-M88
HepG2 IC50(nM), FasL antigen-induced cell apoptosis [1]: 0.0204 nM
EC50 [2]: 235 pM

B6: humFL-M88-12 (antibody, human IgG4, V domains shown)
VH: B1 VH with G24A, K74T, A79V
VL: B1 VL with P47A
notes: Humanized FL-M88
Jurkat IC50(nM), FasL antigen-induced cell apoptosis [1]: 0.0234 nM
EC50 [2]: 276 pM

B7: humFL-M88-18 (antibody, human IgG4, V domains shown)
VH: B1 VH with G24A, K74T, A79V
VL: B1 VL with H94Q
notes: Humanized FL-M88
Jurkat IC50(nM), FasL antigen-induced cell apoptosis [1]: 0.0325 nM
EC50 [2]: 272 pM

B8: humFL-M88-17 (antibody, human IgG4, V domains shown)
VH: B1 VH with A79V
VL: B1 VL with H94Q
notes: Humanized FL-M88
EC50 [2]: 329 pM

B10: FL-M56 (antibody, V domains shown)
VH: EVQLQQSGPELVKPGASVKLSCKASGYTFTRFDISWVRQRPEQGLEWIGWIFPGDGSTQYNENFKGKATLTTDKSSGTAYMQLNRLTSEDSAVYFCARSLISTAMFDHWGQGTTLTVSS
VL: DIVLTQSPASLAVSLGQRATISCRASKSVSTSDFSYIHWYQQKPGLPPKLLIFLASHLESGVPARFSGSGSGTDFTLNIHPVEEEDAATYYCQHSRELPRTFGGGTKLEIK
notes: Chimeric full-length antibody, tested as human IgG4 / human kappa
EC50 [3]: 661 pM
EC50(nM), FasL antigen-induced NF-κB signaling pathway activation (SEAP, HepG2-Dual) [4]: 2.73 nM
IC50(nM), FasL antigen-induced apoptosis of Jurkat cells (CellTiter-Glo ATP) [5]: 0.02 nM
IC50(nM), FasL antigen-induced apoptosis of HepG2 cells (CellTiter-Glo ATP) [6]: 0.02 nM

B11: humFL-M54-1 (antibody, human IgG4, V domains shown)
VH: QVQLVQSGAEVKKPGSSVKVSCKASGYTFTRFDISWVRQAPGQGLEWIGWIFPGDGSSQYNENFKGRATLTTDKSTSTAYMELSSLRSEDTAVYFCARSLISTAMFDHWGQGTLVTVSS
VL: EIVMTQSPATLSVSPGERATLSCRASKSVSTSDFSYIHWYQQKPGQPPRLLIFLASHLESGIPARFSGSGSGTEFTLTISSLQSEDFAVYYCQHSRELPRTFGQGTKVEIK
HepG2 IC50(nM), FasL antigen-induced cell apoptosis [7]: 0.028 nM
Jurkat IC50(nM), FasL antigen-induced cell apoptosis [7]: 0.035 nM

B13: humFL-M54-9 (antibody, human IgG4, V domains shown)
VH: B11 VH with I48M, A68V
VL: B11 VL with F53Y
HepG2 IC50(nM), FasL antigen-induced cell apoptosis [7]: 0.026 nM
Jurkat IC50(nM), FasL antigen-induced cell apoptosis [7]: 0.035 nM

B17: humFL-M54-8 (antibody, human IgG4, V domains shown)
VH: B11 VH with I48M, L70I
VL: B11 VL with F53Y
HepG2 IC50(nM), FasL antigen-induced cell apoptosis [7]: 0.025 nM
Jurkat IC50(nM), FasL antigen-induced cell apoptosis [7]: 0.044 nM

B18: humFL-M54-11 (antibody, human IgG4, V domains shown)
VH: B11 VH
VL: B11 VL with P47A, F53Y
HepG2 IC50(nM), FasL antigen-induced cell apoptosis [7]: 0.028 nM
Jurkat IC50(nM), FasL antigen-induced cell apoptosis [7]: 0.037 nM

B21: humFL-M54-15 (antibody, human IgG4, V domains shown)
VH: B11 VH with I48M, A68V, L70I, T72A
VL: B11 VL with P47A, F53Y
HepG2 IC50(nM), FasL antigen-induced cell apoptosis [7]: 0.03 nM
Jurkat IC50(nM), FasL antigen-induced cell apoptosis [7]: 0.015 nM

B25: humFL-M54-2 (antibody, human IgG4, V domains shown)
VH: B11 VH with I48M
VL: B11 VL
HepG2 IC50(nM), FasL antigen-induced cell apoptosis [7]: 0.031 nM
Jurkat IC50(nM), FasL antigen-induced cell apoptosis [7]: 0.028 nM

B26: FL-M05 (antibody, V domains shown)
VH: EVQLQQSGAELVRPGVSVKISCKGSGYTFTDYTMHWVKQSHAKSLEWIGVISTYQGDARYNQKFKGKATMTVDKSSSTAYMELARLTSEDSAIYYCARFPDWDYAMDYWGQGTSVTVSS
VL: DIVLTQSPASLAVSLGQRATISCKASQSVDYDGDSYMNWYQQKPGQPPKLLIYAASNLESGIPARFSGSGSGTDFTLNIHPVEEEDAATYYCQHSRELPYTFGGGTKLEIK
notes: as for B10
EC50 [3]: 186 pM
EC50(nM), FasL antigen-induced NF-κB signaling pathway activation (SEAP, HepG2-Dual) [4]: 1.13 nM
IC50(nM), FasL antigen-induced apoptosis of Jurkat cells (CellTiter-Glo ATP) [5]: 0.109 nM
IC50(nM), FasL antigen-induced apoptosis of HepG2 cells (CellTiter-Glo ATP) [6]: 0.03 nM

The next lines start with the values.

HepG2 IC50(nM), FasL antigen-induced cell apoptosis [1]: 0.0222 nM
Jurkat IC50(nM), FasL antigen-induced cell apoptosis [1]: 0.0186 nM
EC50 [2]: 230 pM
B9: humFL-M88-5 (antibody, human IgG4, V domains shown)
VH: B1 VH with A79V
VL: B1 VL
notes: Humanized FL-M88

HepG2 IC50(nM), FasL antigen-induced cell apoptosis [7]: 0.031 nM
B12: humFL-M54-6 (antibody, human IgG4, V domains shown)
VH: B11 VH
VL: B11 VL with F53Y

HepG2 IC50(nM), FasL antigen-induced cell apoptosis [7]: 0.029 nM
Jurkat IC50(nM), FasL antigen-induced cell apoptosis [7]: 0.028 nM
B14: humFL-M54-13 (antibody, human IgG4, V domains shown)
VH: B11 VH with I48M, L70I
VL: B11 VL with P47A, F53Y

HepG2 IC50(nM), FasL antigen-induced cell apoptosis [7]: 0.035 nM
B15: humFL-M54-3 (antibody, human IgG4, V domains shown)
VH: B11 VH with I48M, L70I
VL: B11 VL

HepG2 IC50(nM), FasL antigen-induced cell apoptosis [7]: 0.028 nM
Jurkat IC50(nM), FasL antigen-induced cell apoptosis [7]: 0.059 nM
B16: humFL-M54-7 (antibody, human IgG4, V domains shown)
VH: B11 VH with I48M
VL: B11 VL with F53Y

HepG2 IC50(nM), FasL antigen-induced cell apoptosis [7]: 0.03 nM
Jurkat IC50(nM), FasL antigen-induced cell apoptosis [7]: 0.053 nM
B19: humFL-M54-4 (antibody, human IgG4, V domains shown)
VH: B11 VH with I48M, A68V
VL: B11 VL

HepG2 IC50(nM), FasL antigen-induced cell apoptosis [7]: 0.023 nM
Jurkat IC50(nM), FasL antigen-induced cell apoptosis [7]: 0.038 nM
B20: humFL-M54-14 (antibody, human IgG4, V domains shown)
VH: B11 VH with I48M, A68V
VL: B11 VL with P47A, F53Y

HepG2 IC50(nM), FasL antigen-induced cell apoptosis [7]: 0.027 nM
Jurkat IC50(nM), FasL antigen-induced cell apoptosis [7]: 0.052 nM
B22: humFL-M54-5 (antibody, human IgG4, V domains shown)
VH: B11 VH with I48M, A68V, L70I, T72A
VL: B11 VL

HepG2 IC50(nM), FasL antigen-induced cell apoptosis [7]: 0.032 nM
Jurkat IC50(nM), FasL antigen-induced cell apoptosis [7]: 0.015 nM
B23: humFL-M54-12 (antibody, human IgG4, V domains shown)
VH: B11 VH with I48M
VL: B11 VL with P47A, F53Y

HepG2 IC50(nM), FasL antigen-induced cell apoptosis [7]: 0.034 nM
Jurkat IC50(nM), FasL antigen-induced cell apoptosis [7]: 0.017 nM
B24: humFL-M54-10 (antibody, human IgG4, V domains shown)
VH: B11 VH with I48M, A68V, L70I, T72A
VL: B11 VL with F53Y

EC50 [3]: 441 pM
EC50(nM), FasL antigen-induced NF-κB signaling pathway activation (SEAP, HepG2-Dual) [4]: 1.33 nM
IC50(nM), FasL antigen-induced apoptosis of Jurkat cells (CellTiter-Glo ATP) [5]: 0.023 nM
IC50(nM), FasL antigen-induced apoptosis of HepG2 cells (CellTiter-Glo ATP) [6]: 0.021 nM
B27: FL-M89 (antibody, V domains shown)
VH: B26 VH with M34I, R59S
VL: B26 VL with L4M, H94Q
notes: as for B10

EC50 [3]: 157 pM
EC50(nM), FasL antigen-induced NF-κB signaling pathway activation (SEAP, HepG2-Dual) [4]: 0.704 nM
IC50(nM), FasL antigen-induced apoptosis of Jurkat cells (CellTiter-Glo ATP) [5]: 0.035 nM
IC50(nM), FasL antigen-induced apoptosis of HepG2 cells (CellTiter-Glo ATP) [6]: 0.016 nM
B28: FL-M08 (antibody, V domains shown)
VH: B26 VH with E1Q, V2I, Q5L, T33A, R59N
VL: B26 VL with D1E
notes: as for B10
